According to PMC2743916 (Structure (London, England : 1993), 2008):
One block for each binder: values may come before it.

Legend:
crystal structure = target: the molecule itself; assay: crystal structure
Spt4 (residues 1-99) = target: T1, Spt4 (residues 1-99) (S. cerevisiae, UniProt P32914 1-99); assay: crystal structure
T1 sequence (looked up): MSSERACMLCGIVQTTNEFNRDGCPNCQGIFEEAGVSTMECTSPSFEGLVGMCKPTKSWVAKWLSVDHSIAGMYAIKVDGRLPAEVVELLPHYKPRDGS

B1: Spt4/Spt5NGN fusion protein (other, S. cerevisiae)
chain: MSSERACMLCGIVQTTNEFNRDGCPNCQGIFEEAGVSTMECTSPSFEGLVGMCKPTKSWVAKWLSVDHSIAGMYAIKVDGRLPAEVVELLPHYKPRDGSGSATIWGVRCRPGKEKELIRKLLKKKFNLDRAMGKKKLKILSIFQRDNYTGRIYIEAPKQSVIEKFCNGVPDIYISQKLLIPVQELPLLLKPN
- binding result (crystal structure): binds

- binding result (Spt4 (residues 1-99)): binds
B2: Spt5NGN domain (residues 285-375) (domain or fragment, S. cerevisiae, UniProt P27692 285-375, looked up)
chain: ATIWGVRCRPGKEKELIRKLLKKKFNLDRAMGKKKLKILSIFQRDNYTGRIYIEAPKQSVIEKFCNGVPDIYISQKLLIPVQELPLLLKPN
